{
  "source": "patent US20250215091A1",
  "about": "“Anti-GAL3 Antibodies and Compositions” (Les Laboratoires Servier, priority 2022, published 2025)",
  "molecules": {"B1": {"name": "E07: anti-Gal3 monoclonal antibody, IgG1 format; VH SEQ ID NO 42, VL SEQ ID NO 43 (antibody, V domains shown)", "VH": "EVQLVESGGSLVKPGGSLRLSCAASGFTFSNYNMNWVRQAPGKGLEWISNIYGSSRYIYYADFVKGRFTISRDNAKNSLYLQMNSLRAEDTAVYYCVRSYYGGMDVWGRGTLVTVSS", "VL": "QSVLTQPASVSGSPGQSITISCAGTSSDVGGYYSVSWYQQHPGKAPKLMIYYDSNRPSGVSNRFSGSKSGNTASLTISGLQAEDEADYYCSSYTGYSTRVFGGGTKLEIK"}},
  "key": {"plasma IL-5": {"system": "plasma IL-5", "test": "HOCI-induced murine fibrosis model: plasma IL-5 (MSD)", "assay_type": "in vivo, mice", "settings": "first experiment, day 42; vs HOCI group; FIG. 9", "description": "(§1) In a first experiment, control mice (n=12) received a daily intradermal injection of 300 μL of sterile phosphate buffer saline (PBS) for 5 consecutive days per week, for a duration of 42 days. HOCI alone and HOCI with antibody (HOCI-antibody) treated mice (n=12 per group) received a daily intradermal injection of 300 μL of HOCI for 5 consecutive days per week, for a duration of 42 days. Antibody-treated mice also received a subcutaneous injection of 20 mg/kg antibody, starting at day minus one and every 5 days between day 5 and day 40. Each antibody was solubilized in sterile, endotoxin-free PBS before injection. In a second experiment, the same protocol was applied, except that duration of the study was 63 days and antibodies were given every 7 days starting at day minus 1 until day 62.\n(§2) Mice that received daily injection of HOCI were also treated by intratracheal instillation of 0.5 mg/kg of TD139 compound (HOCI-TD139), a small molecule Gal3 inhibitor. In a first experiment, the administrations started from day 21 and the compound was given every 3 days until day 39. In a second experiment, the administrations started from day 20 and the compound was given every 3 days until day 62. TD139 was initially dissolved in 100% DMSO then diluted 50-fold in endotoxin-free PBS before administration.\n(§3) In the first experiment, a mixed effect model with repeated measurements was performed on Control group, HOCI treated group, HOCI-antibody- and HOCI-TD139-treated groups. The impact of HOCI administration on plasma IL-6 and IL-5 levels was evaluated compared to the control group. The impact of antibody and TD139 treatments was compared to the HOCI group (FIG. 9). IL-6 and IL-5 were quantified by using the MSD technology from Mesoscale."}, "[1]": {"system": "genes differentially regulated between HOCI group and control group in whole blood cells", "test": "HOCI-induced murine fibrosis model: whole blood RNA sequencing", "assay_type": "in vivo, mice", "settings": "of 510 genes differentially regulated HOCI vs control; day 42, whole blood", "description": "as §1, §2\nIn the first experiment, global gene expression was examined at day 42 in whole blood cells by RNA sequencing.\nWhole blood was collected in RNA protect tubes (Qiagen) and were processed for RNA extraction using the RNeasy Protect Animal blood kit with the optional on-column DNAse I digestion. Total RNA samples were quantified on Nanodrop 2000 (ThermoFisher Scientific™) and analyzed on Bioanalyzer (Agilent) using RNA 6000 Nano chips to determine RNA quality (RIN). Total RNA matching the QC criteria were included in the study. Purified RNA samples were used as input for the TruSeq Strand-specific RNA-seq (poly A selection and globin depletion) according to manufacturer's protocol (Illumina). […]\nRaw reads were processed using the in-house RNAExp Expression pipeline 2.1 and the quality was assessed using FastQC tools. Then, reads were trimmed for adaptors using Cutadapt and trimmed reads were aligned to mouse mm39 reference genome using the STAR aligner. Aligned data were evaluated for quality using Samtools and Picard tools. Then, aligned reads per gene were quantified using FeatureCount. […] Read count were normalized by the variance stabilizing transformation vst function from DESeq2 R package.\n55,416 genes were detected in the data. […] Genes differentially expressed between groups were determined using a linear model (ImFit function from limma R package) on vst transformation gene expression dataset. […]"}, "plasma IL-6": {"system": "plasma IL-6", "test": "HOCI-induced murine fibrosis model: plasma IL-6 (MSD)", "assay_type": "in vivo, mice", "settings": "first experiment, day 42; vs HOCI group; FIG. 9", "description": "as §1, §2, §3"}, "rat model of ARDS": {"system": "rat model of ARDS", "test": "Rat ARDS model (LPS challenge): total BALF protein (BCA assay)", "assay_type": "in vivo", "settings": "antibodies 14 mg/kg x3 prior to LPS; dexamethasone 10 mg/kg oral; vs LPS group; FIG. 17", "description": "Positive control rats received 3 doses of sterile phosphate buffer at day minus 11, minus 6 and minus 1 prior LPS challenge (0.25 mg/kg by subcutaneous route at day 1). Negative control rats received one oral dose of Dexamethasone at 10 mg/kg (dissolved in 0.5% carboxymethyl cellulose in deionized water) 2 hours prior LPS challenge (0.25 mg/kg by subcutaneous route at day 1). LPS (lipopolysaccharide) causes an acute inflammatory response, whereas dexamethasone has anti-inflammatory effects thus being the reference treatment in this model.\nAntibody-treated rats received 3 doses of antibodies (14 mg/kg) at day minus 11, minus 6 and minus 1 prior to LPS challenge (0.25 mg/kg by subcutaneous route at day 1). Each antibody was solubilized in sterile PBS before injection.\nControl rats of the experiment received 3 doses of sterile phosphate buffer at day minus 11, minus 6 and minus 1 without LPS challenge at day 1.\nThe impact of anti-Gal3 antibody treatment in LPS challenged rats were evaluated by quantification of proteins (by BCA assay) in BALF and compared to the positive control group (LPS challenge with PBS treatment) (FIG. 17). The presence of protein in BALF reflects the damage to the air-blood barrier. […] Total BALF protein numeration levels were decreased after treatment with anti-inflammatory dexamethasone."}, "plasma Gal3": {"system": "plasma Gal3", "test": "HOCI-induced murine fibrosis model: plasma Gal3 (ELISA)", "assay_type": "in vivo, mice", "settings": "first experiment, day 42; FIG. 10", "description": "as §1, §2\nIn the first experiment, the plasma levels of Gal3 were measured at day minus 1 (before antibody administration) and at termination day (day 42) using a mouse Galectin-3 DuoSet ELISA kit (R&D Systems, DY1197) according to the manufacturer's instructions. Plasma samples were diluted 1:200 in order to fit with the dynamic range of the assay."}},
  "data": [
    {"molecule": "B1", "values": [
      {"measurement": "plasma IL-5 levels", "setting": "plasma IL-5", "value": "decreased significantly"},
      {"measurement": "number of HOCI-dysregulated genes counteracted by treatment", "setting": "[1]", "value": 445, "unit": "genes"},
      {"measurement": "percentage of HOCI-dysregulated genes counteracted by treatment", "setting": "[1]", "value": 87.2, "unit": "%"},
      {"measurement": "plasma IL-6 levels", "setting": "plasma IL-6", "value": "significantly decreased the plasma IL-6 levels to values similar to those of control mice"},
      {"measurement": "total BALF protein", "setting": "rat model of ARDS", "value": "also decreased with a statistic significance"},
      {"measurement": "plasma Gal3 levels", "setting": "plasma Gal3", "value": "restored the plasma Gal3 levels to values similar to those of the control group"}
    ]}
  ]
}
